According to paper doi:10.1101/2023.11.29.569174v1:

Tests used:
Assay in all cases: purified protein
purified protein [1] = substrate: C[C@@](O)(CCOP(=O)(O)OP(=O)(O)O)CC(=O)O; details: pH 8.0, 22 °C, 10 mM Mg acetate, 40 mM NaCl, 0.01% Tween 20
purified protein [2] = substrate: C=C(C)CCO[P@@](=O)(O)OP(=O)(O)O; details: pH 8.0, 22 °C, 10 mM Mg acetate, 40 mM NaCl, 0.01% Tween 20
purified protein [3] = substrate: CC(C)=CCC/C(C)=C/CC/C(C)=C/CO[P@@](=O)(O)OP(=O)(O)O; details: pH 8.0, 22 °C, 10 mM Mg acetate, 40 mM NaCl, 0.01% Tween 20
purified protein [4] = substrate: CC(C)=CCOP(=O)(O)OP(=O)(O)O; details: pH 8.0, 22 °C, 10 mM Mg acetate, 40 mM NaCl, 0.01% Tween 20
purified protein [5] = substrate: CC(C)=CCC/C(C)=C/COP(=O)(O)OP(=O)(O)O; details: pH 8.0, 22 °C, 10 mM Mg acetate, 40 mM NaCl, 0.01% Tween 20
purified protein [6] = substrate: CC(C)=CCC/C(C)=C/CC/C(C)=C/CC/C(C)=C/COP(=O)(O)OP(=O)(O)O; details: pH 8.0, 22 °C, 10 mM Mg acetate, 40 mM NaCl, 0.01% Tween 20
purified protein [7] = substrate: Nc1nc2c(ncn2[C@H]2C[C@H](O)[C@@H](COP(=O)(O)OP(=O)(O)OP(=O)(O)O)O2)c(=O)[nH]1; details: pH 8.0, 22 °C, 10 mM Mg acetate, 40 mM NaCl

Protein | Km (purified protein [1]) | kcat (purified protein [1]) | Km (purified protein [2]) | kcat (purified protein [2]) | Km (purified protein [3]) | kcat (purified protein [3]) | Km (purified protein [4]) | kcat (purified protein [4]) | Km (purified protein [5]) | kcat (purified protein [5]) | Km (purified protein [6]) | kcat (purified protein [6]) | Km (purified protein [7]) | kcat (purified protein [7])
NUDT18 (Homo sapiens) (protein) MASEGLAGALASVLAGQGSSVHSCDSAPAGEPPAPVRLRKNVCYVVLAVFLSEQDEVLLIQEAKRECRGSWYLPAGRMEPGETIVEALQREVKEEAGLHCEPETLLSVEERGPSWVRFVFLARPTGGILKTSKEADAESLQAAWYPRTSLPTPLRAHDILHLVELAAQYRQQARHPLILPQELPCDLVCQRLVATFTSAQTVWVLVGTVGMPHLPVTACGLDPMEQRGGMKMAVLRLLQECLTLHHLVVEIKGLLGLQHLGRDHSDGICLNVLVTVAFRSPGIQDEPPKVRGENFSWWKVMEEDLQSQLLQRLQGSSVVPVNR | 26.8 ± 2.8 µM | 0.55 s⁻¹ | 12.4 ± 2.6 µM | 0.87 s⁻¹ | 18.8 ± 3.9 µM | 0.52 s⁻¹ | 9.8 ± 2.9 µM | 0.94 s⁻¹ | 3.7 ± 0.4 µM | 0.78 s⁻¹ | 17.9 ± 3.4 µM | 0.15 s⁻¹ | – | –
NUDT15 (Homo sapiens) (protein) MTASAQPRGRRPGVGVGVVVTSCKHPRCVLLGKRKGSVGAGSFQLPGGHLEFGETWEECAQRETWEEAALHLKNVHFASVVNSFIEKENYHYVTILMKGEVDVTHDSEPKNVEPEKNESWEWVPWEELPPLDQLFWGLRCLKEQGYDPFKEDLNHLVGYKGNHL | – | – | 63.6 ± 19.4 µM | 0.49 s⁻¹ | – | – | 159.3 ± 40.5 µM | 0.94 s⁻¹ | 18.7 ± 0.2 µM | 0.72 s⁻¹ | – | – | 21 µM | 0.637 s⁻¹
